Measured values as given in patent US20250289894A1 (MORPHIC THERAPEUTIC, published 2025).
Positions count from the first letter of the chain named. Read-outs that look alike come from different tables or passages of the source.

B1: Ab8 (antibody, V domains shown)
VH: QVPLQQSGPQLVRPGASVKISCKASGYSFTRYWMHWVKQRPGQGLDWIGKIDPSDSETRLNQEFRDKATLTVDKSSSTAYLQLSSPTSEDSAVYYCARGGYFGEGWYFDVWGAGTTVTVSS
VL: DVVMTQIPLSLPVSLGDQASISCRSSQSLVHRNGNTYLHWYLQKPGQSPKLLIYKVSNRFSGVPDRFSGSGSGTDFTLKISRVEAEDLGVYFCSQSTHVPWTFGGGTKLEIK
notes: Mouse anti-α7β1 antibody (hybridoma, α7 knock-out mouse); also called AbS
B2: Ab2 (antibody, V domains shown)
VH: EVQLVESGGGLVKPGGSLRLSCAASGFTFSSYTMNWVRQAPGKGLEWVSSISIVGNYIYYADSLKGRFTISRDNAKNSLYLQMNSLRAEDTAVYYCARRKWEHDAFDIWGQGTMVTVSS
VL: SSELTQDPAVSVALGQTVRITCQGDSLRSYYASWYQQKPGQAPVLVIYGKNNRPSGIPDRFSGSSSGNTASLTITGAQAEDEADFYCTSRDNSGNHVVFGGGTKLTVL
notes: Human anti-α7β1 antibody (hybridoma, human transgenic mouse); Ab28 and Ab29 are full chains with the same CDRs
B3: Ab29 (antibody, human IgG1, lambda, L234A L235A)
heavy: EVQLVESGGGLVKPGGSLRLSCAASGFTFSSYTMNWVRQAPGKGLEWVSSISIVGNYIYYADSLKGRFTISRDNAKNSLYLQMNSLRAEDTAVYYCARRKWEHDAFDIWGQGTMVTVSSASTKGPSVFPLAPSSKSTSGGTAALGCLVKDYFPEPVTVSWNSGALTSGVHTFPAVLQSSGLYSLSSVVTVPSSSLGTQTYICNVNHKPSNTKVDKKVEPKSCDKTHTCPPCPAPEAAGGPSVFLFPPKPKDTLYITREPEVTCVVVDVSHEDPEVKFNWYVDGVEVHNAKTKPREEQYNSTYRVVSVLTVLHQDWLNGKEYKCKVSNKALAAPIEKTISKAKGQPREPQVYTLPPSRDELTKNQVSLTCLVKGFYPSDIAVEWESNGQPENNYKTTPPVLDSDGSFFLYSKLTVDKSRWQQGNVFSCSVMHEALHNHYTQKSLSLSPG
light: SSELTQDPAVSVALGQTVRITCQGDSLRSYYASWYQQKPGQAPVLVIYGKNNRPSGIPDRFSGSSSGNTASLTITGAQAEDEADFYCTSRDNSGNHVVFGGGTKLTVLGQPKAAPSVTLFPPSSEELQANKATLVCLISDFYPGAVTVAWKADSSPVKAGVETTTPSKQSNNKYAASSYLSLTPEQWKSHKSYSCQVTHEGSTVEKTVAPTECS

Tests used:
Human α7β1 (human) [1] = target: Human α7β1 (human) (UniProt Q13683); test: cell binding, DMD myoblast cells, with Mn-BOP
[2] = target: Mouse α7β1 Ecto Domain (mouse) (UniProt Q61738); test: SPR
[3] = target: Human α7β1 Ecto Domain (human) (UniProt Q13683); test: SPR
Mouse α7β1 [4] = target: T1, Mouse α7β1 (mouse, UniProt Q61738 34-1179; P09055 21-798); test: cell binding, mouse α7β1 cells, with Mn-BOP
T1 construct: whole, on cells; also called mouse α7β1 cells
T1 sequence (Q61738 34-1179, chain 1 of 2): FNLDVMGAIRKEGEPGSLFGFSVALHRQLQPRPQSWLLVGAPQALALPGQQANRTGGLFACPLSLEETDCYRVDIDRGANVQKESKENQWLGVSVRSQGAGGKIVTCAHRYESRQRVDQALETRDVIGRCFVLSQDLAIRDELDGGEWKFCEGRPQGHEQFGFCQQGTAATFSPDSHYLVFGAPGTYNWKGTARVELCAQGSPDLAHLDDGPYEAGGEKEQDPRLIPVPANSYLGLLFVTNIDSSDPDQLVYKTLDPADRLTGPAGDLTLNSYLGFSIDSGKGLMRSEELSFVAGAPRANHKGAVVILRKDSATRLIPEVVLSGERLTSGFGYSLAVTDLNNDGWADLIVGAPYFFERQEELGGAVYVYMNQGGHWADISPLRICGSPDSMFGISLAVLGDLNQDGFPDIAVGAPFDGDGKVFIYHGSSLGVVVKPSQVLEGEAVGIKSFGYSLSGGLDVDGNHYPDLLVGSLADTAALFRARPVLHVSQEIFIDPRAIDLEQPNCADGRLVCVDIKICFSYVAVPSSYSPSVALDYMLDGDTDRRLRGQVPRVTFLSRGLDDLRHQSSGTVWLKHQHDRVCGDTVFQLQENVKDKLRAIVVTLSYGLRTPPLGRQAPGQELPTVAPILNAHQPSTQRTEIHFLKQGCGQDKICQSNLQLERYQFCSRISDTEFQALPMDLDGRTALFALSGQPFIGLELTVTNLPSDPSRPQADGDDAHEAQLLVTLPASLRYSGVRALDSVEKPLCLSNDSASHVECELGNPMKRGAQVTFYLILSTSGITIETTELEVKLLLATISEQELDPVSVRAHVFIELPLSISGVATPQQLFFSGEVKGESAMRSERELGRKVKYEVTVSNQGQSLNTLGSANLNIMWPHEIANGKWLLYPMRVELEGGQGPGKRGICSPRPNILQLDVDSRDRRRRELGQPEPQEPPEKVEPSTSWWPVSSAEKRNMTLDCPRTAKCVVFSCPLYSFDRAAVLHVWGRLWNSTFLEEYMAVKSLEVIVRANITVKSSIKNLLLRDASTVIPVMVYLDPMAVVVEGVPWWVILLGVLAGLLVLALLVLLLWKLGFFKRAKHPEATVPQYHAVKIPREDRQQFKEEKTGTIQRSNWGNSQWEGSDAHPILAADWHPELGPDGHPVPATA
T1 sequence (P09055 21-798, chain 2 of 2): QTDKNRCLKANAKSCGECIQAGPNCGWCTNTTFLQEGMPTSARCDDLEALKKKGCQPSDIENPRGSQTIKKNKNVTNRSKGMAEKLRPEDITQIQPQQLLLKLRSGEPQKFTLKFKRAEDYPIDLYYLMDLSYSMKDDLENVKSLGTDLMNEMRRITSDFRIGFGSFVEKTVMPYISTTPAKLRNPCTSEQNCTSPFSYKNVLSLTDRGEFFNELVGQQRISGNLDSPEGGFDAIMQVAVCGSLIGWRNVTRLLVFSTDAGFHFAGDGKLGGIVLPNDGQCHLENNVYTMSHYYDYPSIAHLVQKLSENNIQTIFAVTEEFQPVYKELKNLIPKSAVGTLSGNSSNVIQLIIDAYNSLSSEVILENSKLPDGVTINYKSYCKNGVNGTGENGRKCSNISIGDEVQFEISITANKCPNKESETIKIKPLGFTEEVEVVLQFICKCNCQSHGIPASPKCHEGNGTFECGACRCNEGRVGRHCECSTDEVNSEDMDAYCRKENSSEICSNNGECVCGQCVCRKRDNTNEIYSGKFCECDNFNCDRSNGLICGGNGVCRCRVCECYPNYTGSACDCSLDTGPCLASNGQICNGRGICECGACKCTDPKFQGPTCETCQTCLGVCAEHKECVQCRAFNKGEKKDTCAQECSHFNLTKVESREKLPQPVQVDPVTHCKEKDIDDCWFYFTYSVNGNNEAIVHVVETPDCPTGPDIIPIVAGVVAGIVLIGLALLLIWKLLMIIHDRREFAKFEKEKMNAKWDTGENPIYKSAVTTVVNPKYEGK

Cynomolgus Monkey α7β1 = Cynomolgus Monkey α7β1 (cynomolgus monkey, UniProt A0A2K5UNI0 34-1181; H9FU31 21-798); test: cell-based or functional assay
Mouse α7β1 [5] = target: T1, Mouse α7β1; test: cell-based or functional assay
[6] = target: Mouse α7β1 Ecto Domain (mouse) (UniProt Q61738); test: cell-based or functional assay
[7] = target: Human α7β1 Ecto Domain (human) (UniProt Q13683); test: cell-based or functional assay
Human α7β1 (human) [8] = target: Human α7β1 (human) (UniProt Q13683); test: cell-based or functional assay
Human Leg α7 = target: T2, Human Leg α7 (human, UniProt Q13683 679-1078); test: SPR
T2 construct: also called human α7 leg; leg domain of human α7
T2 sequence: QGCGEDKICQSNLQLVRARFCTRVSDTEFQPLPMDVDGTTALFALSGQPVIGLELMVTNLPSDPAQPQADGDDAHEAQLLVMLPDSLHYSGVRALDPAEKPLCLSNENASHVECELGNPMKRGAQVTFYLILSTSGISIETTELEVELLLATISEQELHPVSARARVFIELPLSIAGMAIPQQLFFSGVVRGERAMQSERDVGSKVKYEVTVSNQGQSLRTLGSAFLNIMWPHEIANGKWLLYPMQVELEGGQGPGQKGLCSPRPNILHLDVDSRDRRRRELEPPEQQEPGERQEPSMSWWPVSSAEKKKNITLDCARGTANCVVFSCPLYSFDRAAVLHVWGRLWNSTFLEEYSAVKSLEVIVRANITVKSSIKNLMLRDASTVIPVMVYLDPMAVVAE

Cynomolgus Monkey Leg α7 = target: T3, Cynomolgus Monkey Leg α7 (cynomolgus monkey, UniProt A0A2K5UNI0 679-1078); test: SPR
T3 construct: domain: Leg α7
T3 sequence: T2 sequence with T22A, V36A, I180T, R220K, Q246R, T384I

Mouse Leg α7 = target: T4, Mouse Leg α7 (mouse, UniProt Q61738 679-1076, limits assumed); test: SPR
T4 construct: domain: Leg α7
T4 sequence (looked up): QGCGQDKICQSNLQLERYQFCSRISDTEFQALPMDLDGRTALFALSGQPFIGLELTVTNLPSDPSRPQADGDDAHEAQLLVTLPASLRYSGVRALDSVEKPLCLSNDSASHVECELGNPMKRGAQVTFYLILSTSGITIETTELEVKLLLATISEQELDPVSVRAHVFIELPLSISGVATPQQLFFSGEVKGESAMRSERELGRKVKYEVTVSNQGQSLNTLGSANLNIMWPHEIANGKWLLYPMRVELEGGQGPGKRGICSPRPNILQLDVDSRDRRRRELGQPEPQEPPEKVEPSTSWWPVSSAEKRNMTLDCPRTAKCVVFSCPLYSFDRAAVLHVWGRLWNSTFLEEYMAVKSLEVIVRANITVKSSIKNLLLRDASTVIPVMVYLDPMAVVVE

[9] = target: T5, Cynomolgus Monkey α7β1 Ecto Domain (cynomolgus monkey, UniProt A0A2K5UNI0 34-1082; H9FU31 21-728); test: SPR
T5 construct: extracellular domain; Heterodimer

human α7 calf-1 protein = target: T6, human α7 calf-1 protein (human, UniProt Q13683 688-848); test: binding ELISA, panel 'Human a7 Calf1 vs Ab2'
T6 construct: also called Calf-1 domain
T6 sequence: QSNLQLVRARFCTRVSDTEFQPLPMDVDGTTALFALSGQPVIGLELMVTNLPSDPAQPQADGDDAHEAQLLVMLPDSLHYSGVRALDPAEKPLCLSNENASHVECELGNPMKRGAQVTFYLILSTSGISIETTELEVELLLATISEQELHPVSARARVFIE

Human α7β1 (human) [10] = target: Human α7β1 (human) (UniProt Q13683); test: cell-based or functional assay; remark: listed apart in the source
Human a7b1 Ecto (X2B) = target: T7, Human a7b1 Ecto (X2B) (human, UniProt P05556 21-728); test: SPR
T7 construct: extracellular domain
T7 sequence (P05556 21-728): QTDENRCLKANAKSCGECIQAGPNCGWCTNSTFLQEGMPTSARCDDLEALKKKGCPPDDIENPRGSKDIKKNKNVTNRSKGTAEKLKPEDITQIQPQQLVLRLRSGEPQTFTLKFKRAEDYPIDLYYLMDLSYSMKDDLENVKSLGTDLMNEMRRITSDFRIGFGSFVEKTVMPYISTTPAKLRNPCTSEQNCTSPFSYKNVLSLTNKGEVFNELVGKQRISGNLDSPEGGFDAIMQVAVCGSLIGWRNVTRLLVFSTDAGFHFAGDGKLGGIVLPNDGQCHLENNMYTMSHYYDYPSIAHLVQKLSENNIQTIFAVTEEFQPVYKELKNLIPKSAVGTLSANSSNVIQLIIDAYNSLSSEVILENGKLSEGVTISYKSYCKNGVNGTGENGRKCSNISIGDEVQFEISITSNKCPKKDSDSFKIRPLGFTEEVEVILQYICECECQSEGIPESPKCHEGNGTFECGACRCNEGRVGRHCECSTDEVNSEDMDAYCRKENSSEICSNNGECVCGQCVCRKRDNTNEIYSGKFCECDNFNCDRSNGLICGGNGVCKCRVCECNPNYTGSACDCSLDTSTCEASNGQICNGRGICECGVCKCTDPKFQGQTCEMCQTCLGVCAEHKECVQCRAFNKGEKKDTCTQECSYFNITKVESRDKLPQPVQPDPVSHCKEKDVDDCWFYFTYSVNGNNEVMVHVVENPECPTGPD

Human a7 Genu Calf 1-2 = target: T8, Human a7 Genu Calf 1-2 (human, UniProt Q13683 679-1078, limits assumed); test: SPR
T8 construct: domain: Genu Calf 1-2
T8 sequence (looked up): T2 sequence

Binder | EC50 (Human α7β1 (human) [1]) [nM] | Kd [3] [nM] | EC50 (nM), Cell Adhesion Assay (Cynomolgus Monkey α7β1) [nM] | Emax (%*), Cell Adhesion Assay (Cynomolgus Monkey α7β1) [%] | Emax (%*), Solid Phase Assay [7] [%] | EC50 (nM), ECIS, DMD-1 myoblast cells (Human α7β1 (human) [8]) [nM] | EC50 (nM), ECIS, DMD-2 myoblast cells (Human α7β1 (human) [8]) [nM] | EC50 (nM), ECIS, Non-DMD myoblast cells (Human α7β1 (human) [8]) [nM] | Emax (% of RefAb1), ECIS, DMD-1 myoblast cells (Human α7β1 (human) [8]) | Emax (% of RefAb1), ECIS, DMD-2 myoblast cells (Human α7β1 (human) [8]) | Emax (% of RefAb1), ECIS, Non-DMD myoblast cells (Human α7β1 (human) [8]) | Emax (%*), Cell Adhesion Assay (Human α7β1 (human) [8]) [%] | Kd (Human Leg α7) [nM] | Kd (Cynomolgus Monkey Leg α7) [nM] | Kd [9] [nM] | other results
B1 | 32.6 | 184 | 1.69 | 102 | 89 | 10 | 32 | 41.6 | 264 % of RefAb1 | 130 % of RefAb1 | 100 % of RefAb1 | 117 | 25 | 32.3 | 225 | Kd [2]: 5.46 nM; EC50 (Mouse α7β1 [4]): 22.6 nM; EC50 (nM), Cell Adhesion Assay (Mouse α7β1 [5]): 3.82 nM; Emax (%*), Cell Adhesion Assay (Mouse α7β1 [5]): 144%; EC50 (nM), Solid Phase Assay [6]: 1.55 nM; Emax (%*), Solid Phase Assay [6]: 148%; EC50 (nM), Solid Phase Assay (6xHis α7β1 ectodomain on coated laminin-221) [7]: 0.77 nM; EC50 (nM), Cell Adhesion Assay (K562 cells expressing α7β1 on laminin-221) (Human α7β1 (human) [8]): 3.94 nM; Kd (Mouse Leg α7): 1.42 nM
B2 | 41.1 | 5.69 | 3.31 | 115 | 97 | 14.8 | 41.1 | 23.3 | 289 % of RefAb1 | 240 % of RefAb1 | 124 % of RefAb1 | 122 | 1.58 | 19.4 | 23 | binding result (human α7 calf-1 protein): no binding; EC50 (nm), a7b1 activation assay (Human α7β1 (human) [10]): 2.8 nM; EC50 (ug/mL), a7b1 activation assay (Human α7β1 (human) [10]): 0.42 µg/mL; Emax (% TS2/16), a7b1 activation assay (Human α7β1 (human) [10]): 100 % TS2/16; Emax (F.C.), a7b1 activation assay (Human α7β1 (human) [10]): 2.09 F.C.; EC50 (nM), Solid Phase Assay [7]: 0.4 nM; EC50 (nM), Cell Adhesion Assay (Human α7β1 (human) [8]): 5.1 nM; EC50 (nM), a7b1 activation assay (Human α7β1 (human) [8]): 2.91 nM; EC50 (ug/mL), a7b1 activation assay (Human α7β1 (human) [8]): 0.44 µg/mL; Emax (% TS2/16), a7b1 activation assay (Human α7β1 (human) [8]): 117 % TS2/16; Emax (F.C.), a7b1 activation assay (Human α7β1 (human) [8]): 2.75 F.C.; binding result (Mouse Leg α7): no binding
B3 |  |  |  |  |  |  |  |  |  |  |  |  |  |  |  | Kd (Human a7b1 Ecto (X2B)): 8.9 nM; Kd (Human a7 Genu Calf 1-2): 3.6 nM
